# Measurements as given in the supplement of paper PMC10567573.
# ± gives the standard deviation.
# Assay: protein stability index of a GFP-peptide fusion (GPS, HEK-293T) (PSI 1-6); higher = more stable
# Conditions: c terminus: a fixed tail appended
# 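Also: 24-mer peptide tiles fused after GFP, lentivirally expressed, FACS-sorted into six equal bins by GFP/DsRed ratio, decoded by Illumina sequencing, PSI is the read-weighted mean bin number.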
Sequence,protein stability index (treatment: DMSO),"protein stability index (treatment: MLN4924 1 uM, 8 h)"
KRLREEEAARLFKQIVSAVAHCHQ [TRIB1],2.4 ± 0.36,2.4 ± 2
KRPYAKELETVDFKDKLEETKGQI [SERPINB5],5.12 ± 0.21,5.23 ± 0.14
KRRKDSEEEAASPEGKRVPKRLRC [FANCE],5.08 ± 0.3,5.12 ± 0.26
KSFILDFMLRYLYSQKESGHSNWL [ATL3],2.88 ± 0.33,3.07 ± 0.48
KSQSLRSVRRSESWARPRPDEERP [RASAL3],4.89 ± 0.36,4.99 ± 0.12
KTKYILLMDIVPADDHRYKFADNK [TBX5],2.08 ± 0.22,2.3 ± 0.42
KTNLDGMITVQLPEVPANENIKGY [PTPRD],4.12 ± 0.4,4.24 ± 0.28
KTYQETPEIDMFLNVATFLDPRYK [ZBED1],2.38 ± 0.36,2.56 ± 0.32
KVIDDTNITRLQLETEIEALKEEL [KRT18],4.2 ± 0.18,4.36 ± 0.23
KVQKPLLQAPFLPPKAPPPVIKIP [RHOBTB1],3.17 ± 0.11,3.35 ± 0.13
KYEAQNIVNSTEESDDAFDTVTIP [IQUB],5.27 ± 0.22,5.09 ± 0.45
KYEQAFESSQKYKEGKYIIELNHM [YPEL3],2.71 ± 0.1,2.87 ± 0.2
LALMIQSSGNTVLLLILCMQHSFP [TMEM192],2.9 ± 0.073,3.1 ± 0.48
LAPEVIQSKGHGRAVDWWALGILI [PRKX],2.61 ± 0.86,2.3 ± 0.62
LAPTFSNLLLQPTTNPHTSASHRP [SMG5],3.55 ± 0.15,3.61 ± 0.26
LARPECLFLLLGHGASPGLRDGGG [ANKRD9],2.29 ± 0.54,2.19 ± 0.23
LASIFQLAMWTTALLHQAETLQPS [TMEM175],3.13 ± 0.29,3.13 ± 0.75
LCDKLPPATALGTASYPSDGCGAD [NOL4L],4.98 ± 0.19,4.92 ± 0.23
LCLLVAWSIVGMAVVKGIQSSGKV [SLC6A17],2.76 ± 0.49,2.84 ± 0.21
LDLKRQYDRVAQLDQLLHYRKKSA [CHGB],3.23 ± 0.26,3.63 ± 0.51
LDLSKNKLQQLPADFGRLVNLQHL [LRRC59],2.54 ± 0.33,2.63 ± 0.26
LDQPVSAPPSPRDISMEIDSPENM [CCDC6],5.47 ± 0.2,5.23 ± 0.41

Sequence,protein stability index (treatment: DMSO),"protein stability index (treatment: MLN4924 1 uM, 8 h)"
LEAEVKDTTRVENLIKSENYGKIL [R3HDM1],4.3 ± 0.59,4.43 ± 0.42
LEFKLKSNDNEERLQVVKLLAKMF [PDS5B],2.12 ± 0.38,2.29 ± 0.28
LEIDSGVITLDPQTASRSLVLSED [TRIM15],4.69 ± 0.19,4.74 ± 0.32
LEPPEEEIIEGNTKSHIMLVQRQM [NECAB1],4.64 ± 0.16,4.8 ± 0.24
LEQMIKENQEKTEDQYEENSHLTS [ETS2],5.7 ± 0.16,5.51 ± 0.14
LESIPSLSQSPEPGRRGDPDTAPP [RTN2],5.49 ± 0.12,5.535 ± 0.045
LESVNHCHLNGIVHRDLKPENLLL [CAMK2D],2.85 ± 0.34,2.98 ± 0.41
LFLLLGHGASPGLRDGGGLTPLEL [ANKRD9],2.29 ± 0.32,2.36 ± 0.59
LFQSPLFAKAGDTLSGTCLLIANK [CARM1],2.56 ± 0.76,2.81 ± 0.47
LFVNSHPGIDRPGMLCSFRIPGAW [DCAF4],2.38 ± 0.59,2.24 ± 0.43
LGDEICCWSFYGQGRKIAEVCCTS [KCTD13],2.15 ± 0.1,2.1 ± 0.29
LGDPCPMLESPGAPCRSAQASVSC [HDAC6],3.94 ± 0.39,4.06 ± 0.18
LGDRLNVEVDTAPTVDLNQVLNET [KRT34],4.87 ± 0.15,4.96 ± 0.29
LGGAIDFGAAYVLEQASSHIGNST [ATL3],3.03 ± 0.23,3.2 ± 0.15
LGLLDDYLEVAKHFKPHGFSSDKA [ATF4],2.89 ± 0.19,3.07 ± 0.91
LGVGLGVEISRRLRHSNPRADPLV [SPNS1],3.082 ± 0.029,2.96 ± 0.22
LIDEKVLILHGGVSDITDLELLDK [PPEF2],3.14 ± 1.5,3.71 ± 0.55
LIFHRHPVAQSTDAIRGKVGYTRG [SPSB1],2.33 ± 0.23,2.41 ± 0.21
LIHPELNEGLMKWENRHEGVFKFL [ELF3],2.36 ± 0.15,2.48 ± 0.19
LINSNVSMVDLTSVTLEDVTPKKS [FAN1],3.34 ± 0.25,3.55 ± 0.17
LIQPINHTTLQCLAARVIVNHRIY [FEM1C],2.39 ± 0.3,2.38 ± 0.43
LKASEPGLFAVGEHTGEVRTARAL [PCDHGA10],4.06 ± 0.35,4.21 ± 0.16
